From patent US20090192112A1 (REGENTS OF THE UNIVERSITY OF MICHIGAN, published 2009)

Columns and labels:
[1] = biological target: T1, disheveled-1 (Dvl-1) (human, UniProt O14640 1-695, limits assumed); assay: co-IP, BxPC3 lysate
T1 construct: Endogenous protein in cell lysate
T1 sequence (looked up): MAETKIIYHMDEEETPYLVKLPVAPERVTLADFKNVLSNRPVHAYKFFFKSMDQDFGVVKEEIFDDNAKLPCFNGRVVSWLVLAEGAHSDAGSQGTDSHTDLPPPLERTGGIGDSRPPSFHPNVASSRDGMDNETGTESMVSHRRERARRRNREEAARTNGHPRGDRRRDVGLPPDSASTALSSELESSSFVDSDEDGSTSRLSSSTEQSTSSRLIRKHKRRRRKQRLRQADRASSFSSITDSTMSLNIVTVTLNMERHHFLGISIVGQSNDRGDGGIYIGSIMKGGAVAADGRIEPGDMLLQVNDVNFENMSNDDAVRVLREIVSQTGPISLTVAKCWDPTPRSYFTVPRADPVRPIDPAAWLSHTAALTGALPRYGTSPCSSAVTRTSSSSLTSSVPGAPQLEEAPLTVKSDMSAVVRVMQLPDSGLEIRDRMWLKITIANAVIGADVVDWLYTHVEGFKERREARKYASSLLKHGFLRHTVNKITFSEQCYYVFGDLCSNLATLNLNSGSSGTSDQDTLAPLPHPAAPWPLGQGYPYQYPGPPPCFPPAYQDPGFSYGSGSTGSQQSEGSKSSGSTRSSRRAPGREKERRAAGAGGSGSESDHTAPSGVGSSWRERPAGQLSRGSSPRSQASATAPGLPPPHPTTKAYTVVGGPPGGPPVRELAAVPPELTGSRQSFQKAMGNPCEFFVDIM

[2] = biological target: T2, disheveled-3 (Dvl-3) (human, UniProt Q92997 1-716, limits assumed); assay: co-IP, BxPC3 lysate
T2 construct: Endogenous protein in cell lysate
T2 sequence (looked up): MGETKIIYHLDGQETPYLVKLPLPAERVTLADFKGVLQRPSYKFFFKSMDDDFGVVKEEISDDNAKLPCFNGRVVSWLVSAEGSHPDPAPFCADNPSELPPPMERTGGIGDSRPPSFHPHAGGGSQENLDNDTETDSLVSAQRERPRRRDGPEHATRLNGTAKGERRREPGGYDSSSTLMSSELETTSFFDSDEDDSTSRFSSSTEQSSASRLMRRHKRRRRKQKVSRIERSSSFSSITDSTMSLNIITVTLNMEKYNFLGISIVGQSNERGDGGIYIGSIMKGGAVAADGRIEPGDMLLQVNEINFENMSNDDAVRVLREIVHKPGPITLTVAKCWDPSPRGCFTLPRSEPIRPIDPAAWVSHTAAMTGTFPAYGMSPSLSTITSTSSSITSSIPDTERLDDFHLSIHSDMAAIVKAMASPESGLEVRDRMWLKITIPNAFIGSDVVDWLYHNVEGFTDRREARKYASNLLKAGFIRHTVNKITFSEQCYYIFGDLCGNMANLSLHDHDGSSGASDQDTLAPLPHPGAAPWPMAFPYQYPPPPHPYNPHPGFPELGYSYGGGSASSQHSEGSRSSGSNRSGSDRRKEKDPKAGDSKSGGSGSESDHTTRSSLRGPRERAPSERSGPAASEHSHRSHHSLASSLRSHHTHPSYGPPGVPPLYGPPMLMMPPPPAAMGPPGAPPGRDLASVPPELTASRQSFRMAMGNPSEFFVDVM

[3] = biological target: T3, β-catenin (human, UniProt P35222 2-781); assay: co-IP with β-catenin antibody, anti-ATDC western blot, BxPC3 lysate
T3 construct: Endogenous protein in cell lysate; also called beta-catenin
T3 sequence (looked up): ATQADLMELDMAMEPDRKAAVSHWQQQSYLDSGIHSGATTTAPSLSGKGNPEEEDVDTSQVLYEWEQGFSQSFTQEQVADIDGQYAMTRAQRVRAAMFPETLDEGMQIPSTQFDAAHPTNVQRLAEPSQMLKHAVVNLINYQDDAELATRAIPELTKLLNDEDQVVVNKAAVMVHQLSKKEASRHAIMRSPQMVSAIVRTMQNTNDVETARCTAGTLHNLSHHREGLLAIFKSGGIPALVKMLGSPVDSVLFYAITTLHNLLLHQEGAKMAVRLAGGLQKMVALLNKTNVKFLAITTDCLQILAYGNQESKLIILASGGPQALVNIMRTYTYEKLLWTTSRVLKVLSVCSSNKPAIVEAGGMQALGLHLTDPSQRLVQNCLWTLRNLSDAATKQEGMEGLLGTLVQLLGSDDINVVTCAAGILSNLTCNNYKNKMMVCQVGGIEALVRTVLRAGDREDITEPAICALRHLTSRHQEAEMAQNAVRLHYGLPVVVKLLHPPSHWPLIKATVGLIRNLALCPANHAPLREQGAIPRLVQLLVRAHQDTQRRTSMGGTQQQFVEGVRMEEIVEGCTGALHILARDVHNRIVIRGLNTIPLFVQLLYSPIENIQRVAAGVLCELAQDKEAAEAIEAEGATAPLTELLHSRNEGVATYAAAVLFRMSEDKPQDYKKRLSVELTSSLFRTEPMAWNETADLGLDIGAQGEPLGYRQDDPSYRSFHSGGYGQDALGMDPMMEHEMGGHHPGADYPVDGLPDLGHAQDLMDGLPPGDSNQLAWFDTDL
Method: HEK 293 cells with or without stable transfection of ATDC and BxPC-3 cells were lysed by sonicating for 5 sec in 1 ml of detergent free lysis buffer (PBS, 5 mM EDTA, 0.02% sodium azide, 10 mM iodoacetamide, 1 mM PMSF and 2 μg leupeptin) at 4° C. […] Antibody conjugated beads were prepared by combining 1 μg of polyclonal antibodies with 30 μl of a 50% protein A-Sepharose bead slurry in 0.5 ml of ice-cold PBS for 1 hr at 4° C. in a tube rotator and then were washed two times with 1 ml of lysis buffer. The antibodies used for co-immunoprecipitation were: Dvl-2, β-catenin (Cell Signaling Technology, Beverly, Mass.), axin, and GSK3β (Upstate, Temecula, Calif.). Cell lysates (500 μg) was incubated with the prepared beads and 10 μl of 10% BSA overnight at 4° C. The beads were washed four times with washing buffer (50 mM Tris-Hcl [pH 7.4], 300 mM NaCl, 5 mM EDTA, 0.02% sodium azide, 0.1% Triton X-100) and one time with ice-cold PBS. […] Images were visualized using an ECL detection system.
To ascertain the mechanism by which ATDC stabilizes β-catenin, it was first examined whether ATDC interacts with the components of the multi-protein complex that regulates β-catenin stability.

binding result [1]: no binding
binding result [2]: no binding
binding result [3]: no binding
B1: ATDC (Ataxia-Telangiectasia Group D Complementing Gene, also known as TRIM29), endogenous (other, UniProt Q14134 1-588, looked up)
chain: MEAADASRSNGSSPEARDARSPSGPSGSLENGTKADGKDAKTTNGHGGEAAEGKSLGSALKPGEGRSALFAGNEWRRPIIQFVESGDDKNSNYFSMDSMEGKRSPYAGLQLGAAKKPPVTFAEKGELRKSIFSESRKPTVSIMEPGETRRNSYPRADTGLFSRSKSGSEEVLCDSCIGNKQKAVKSCLVCQASFCELHLKPHLEGAAFRDHQLLEPIRDFEARKCPVHGKTMELFCQTDQTCICYLCMFQEHKNHSTVTVEEAKAEKETELSLQKEQLQLKIIEIEDEAEKWQKEKDRIKSFTTNEKAILEQNFRDLVRDLEKQKEEVRAALEQREQDAVDQVKVIMDALDERAKVLHEDKQTREQLHSISDSVLFLQEFGALMSNYSLPPPLPTYHVLLEGEGLGQSLGNFKDDLLNVCMRHVEKMCKADLSRNFIERNHMENGGDHRYVNNYTNSFGGEWSAPDTMKRYSMYLTPKGGVRTSYQPSSPGRFTKETTQKNFNNLYGTKGNYTSRVWEYSSSIQNSDNDLPVVQGSSSFSLKGYPSLMRSQSPKAQPQTWKSGKQTMLSHYRPFYVNKGNGIGSNEAP
notes: Endogenous protein in lysates of human pancreatic cancer cell lines (BxPC3, Panc-1); also called endogenous ATDC
